Source: patent US5807729A, “Metalloprotease having increased activity” (Novo Nordisk A/S, priority 1995, dated 1998)
Read-outs that look alike come from different tables or passages of the source.

Experiments:
[1] = target: neutral metalloprotease from Bacillus stearothermophilus (Bacillus stearothermophilus); experiment: enzyme inhibition, kinetic analysis of B.s. thermolysin activity
succinylated casein [2] = target: succinylated casein
[3] = system: Fusarium oxysporum metalloprotease; experiment: Inhibition of Fusarium metalloprotease with 1,10-phenanthroline / EDTA and reactivation with Zn2+; type: biochemical
Procedure: (§1) Metalloprotease activity is measured as released trypsin activity from pro-trypsin-like Fusarium oxysporum protease deposited at the Deutsche Sammlung von Mikroorganismen, Gottingen, Germany under the number DSM 2672, after a 30-60 min pre-incubation at 25° C. in 0.1M Tris, 2 mM CaCl2, pH 7 (at lower pH, 100 mM borate, 10 mM DMG, 2 mM CaCl2 is used).
(§2) Metalloproteases contain a catalytic zinc metal center which participates in the hydrolysis of the peptide backbone. The active zinc center differentiates these proteases from calpains whose activities are dependent upon the presence of calcium. Confirmation of a protease as a metallo-protease is loss of proteolytic activity accomplished by removal of the zinc center with 1,10-phenanthroline (1 mM) followed by titration with Zn^2+ (0.1-100 μM) to restore full activity.
(§3) However, when combined the metalloprotease cleaves recombinant pro-trypsin-like Fusarium oxysporum protease disclosed, supra to yield the active tryptic protease. Metalloprotease activity is halted upon the addition of 1 mM 1,10-phenanthroline (Table 1).

[4] = target: pro-trypsin-like Fusarium oxysporum protease (Fusarium oxysporum) (UniProt P35049)
FTC-labeled casein [5] = target: FTC-labeled casein
succinylated casein [6] = target: succinylated casein; remark: listed apart in the source
[7] = system: FAGLA: N-(3-[2-Furyl]Acryloyl)-Gly-Leu amide; experiment: FAGLA hydrolysis (345 nm); type: biochemical
Procedure: The thermolytic substrate FAGLA: N-(3-[2-Furyl]Acryloyl)-Gly-Leu amide is used to further characterize the p45 metalloprotease and B.t. thermolysin. Reaction mixtures contain 100 microliters of N-(3-[2-Furyl]Acryloyl)-Gly-Leu amide (FAGLA) (2 mM) and 100 microliters of various concentrations of either thermolysin (Boehringer Mannheim) or purified p45 metalloprotease. Thermolytic activity is determined as a decrease in absorbance at 345 nm on the recording spectrometer for one minute(Shimadzu, UV160U). The linear range of the assay for thermolysin is 10-500 ug/ml thermolysin in the assay mix.

succinylated casein [8] = experiment: Casein hydrolysis, succinylated casein assay (QuantiCleave, BCA, 600 nm); type: biochemical; settings: for maximum absorbance, casein hydrolysis: pH 6.5, room temperature, 40 minutes, FIG. 8
Procedure: 400 ul of casein solution (Pierce) is added to small test tubes along with 100 ul of protease. The tubes are vortexed and incubated at room temperature for 40 minutes. The incubation (and assay) buffer is 0.1 M borate, 2 mM CaCl2, and 10 mM dimethylglutarate, pH 6.5. At the end of the incubation, 60 microliters of trichloroacetic acid (100% w/v) is added, and the tubes are vortexed and centrifuged for 1 minute at 5000×g. 20 microliters of the resulting supernatant is placed into a microtiter plate well with 200 microliters of the BCA working reagent (Pierce). The plates are then vortexed and incubated another 30 minutes, then read at 600 nm using a Biomek 1000 microtiter plate reader.
400 microliters of casein solution (Pierce) are added to small test tubes along with 100 microliters of protease in buffer "A" (0.1M borate, 2 mM CaCl2 and 10 mM dimethylglutaric acid). At the end of the incubation, 60 microliters of trichloroacetic acid (100% w/v) is added, and the tubes are vortexed and centrifuged for 1 minute at 5000×g. 20 microliters of the resulting supernatant is placed into a microtiter plate well with 200 microliters of the BCA working reagent (Pierce). The plates are then vortexed and incubated another 30 minutes, then read at 600 nm using a Biomek 1000 microtiter plate reader.

FTC-labeled casein [9] = experiment: Protease analysis using FTC-labeled casein; type: biochemical
Procedure: Samples are incubated at room temperature for 30 minutes.

[10] = system: Ac-Pro-Leu-Gly[2-mercapto-4-methyl-pentanoyl]-Leu-Gly-OEt; experiment: Hydrolysis of the thermolytic merc-peptide substrate (Ellman's reagent, 405 nm); type: biochemical
Procedure: The thermolytic substrate Ac-Pro-Leu-Gly[2-mercapto-4-methyl-pentanoyl]-Leu-Gly-OEt (i.e. the merc-peptide) is also used to further characterize the p45 metalloprotease and B.t. thermolysin.
Reaction mixtures contain 100 microliters of Ac-Pro-Leu-Gly[2-mercapto-4-methyl-pentanoyl]-Leu-Gly-OEt (1 mM, and 1 mM Ellman's reagent) and 100 microliters of either B.t. thermolysin or purified p45 metalloprotease (0-3 ug/ml) in sample buffer.

[11] = system: succinyl-Ala-Ala-Ala-p-nitroanilide; experiment: Hydrolysis of succinyl-Ala-Ala-Ala-p-nitroanilide; type: biochemical
Excerpt: Both p45 metalloprotease and a neutral zinc endopeptidase secreted by Flavobacterium meningosepticum poorly hydrolyze the substrate N-[3-(2--furyl)acryloyl]-Leu-Gly-NH2. However, the neutral zinc endopeptidase secreted by Flavobacterium meningosepticum will hydrolyze the vertebrate elastase substrate succinyl-Ala-Ala-Ala-p-nitroanilide, a substrate that thermolysin cannot hydrolyze (Table 2). Therefore, succinyl-Ala-Ala-Ala-p-nitroanilide hydrolysis by the p45 metalloprotease is investigated. […] This effect further differentiates the p45 metalloprotease from other existing metalloproteases.

[12] = system: pro-trypsin-like F. oxysporum protease; experiment: Processing of pro-trypsin-like F. oxysporum protease to active trypsin-like protease
Procedure: Activatable pro-trypsin-like F. oxysporum protease is determined in microtiter wells as released trypsin-like F. oxysporum protease (tryptic) activity from pro-trypsin-like F. oxysporum protease after a 40 minute pre-incubation at room temperature with purified Fusarium oxysporum metalloprotease (approximately 6 ug).
Processed pro-trypsin-like F. oxysporum protease(i.e. mature trypsin-like F. oxysporum protease) activity is determined directly from microtiter plates containing the pre-incubated metalloprotease/pro-trypsin-like F. oxysporum protease cocktail (total volume=100 microliters), and 100 microliters of substrate (87 mg/ml.L-BAPNA stock in DMSO diluted 50-fold in sample buffer). Again, active trypsin-like F. oxysporum protease is determined as an increase in absorbance at 405 nm immediately after L-BAPNA addition.
Purified pro-trypsin-like F. oxysporum protease is added to fresh A. oryzae fermentation broths containing the recombinant p45 metalloprotease (approximately 90 mg/L) and incubated for either 1, 2, or 3 hours at room temperature. Levels of pro-trypsin-like F. oxysporum protease in the incubation mixtures range from 100 ug/ml to 13 mg/ml.
Purified pro-trypsin-like F. oxysporum protease (100 ug/ml) is added to various amounts of either purified recombinant p45 metalloprotease or purified B.s. metalloprotease.

FTC-labeled casein [13] = experiment: Thermal stability profile, FTC-casein hydrolysis; type: biochemical; settings: 15 minutes at various temperatures, Universal buffer pH 7; FIG. 9
Procedure: Purified p45 metalloprotease or B.t. thermolysin (Boehringer Mannheim) (50 microliters, 0.1 mg/ml) are incubated at various temperatures for 15-minutes in Universal buffer, pH 7. Ten microliters of sample are then added to 30 microliters of Universal pH buffer (pH 7) and 20 microliters of FTC-labeled casein and are incubated at 37° C. for 1 hour. 150 microliters of 5% TCA is added to acidify and precipitate casein (1 hour at room temperature). […] Samples are then analyzed on the fluorimeter (slit width=2.5 nm; excitation freq.=490 nm; emission freq.=525 nm; integration time=2 sec).

FTC-labeled casein [14] = experiment: pH profile, FTC-casein hydrolysis; type: biochemical
Procedure: Purified p45 metalloprotease (10 microliters, 0.005 mg/ml) is added to 30 microliters of Universal pH buffer (pH 5-11.5), and 20 microliters of FTC-labeled casein are incubated at 37° C. for 1-hour. 150 microliters of 5% TCA is added to acidify and precipitate casein (1-hour at room temperature). […] Samples are then analyzed on the fluorimeter (slit width=2.5 nm; excitation freq.=490 nm; emission freq.=525 nm; integration time=2 sec).

[15] = system: pro-trypsin-like Fusarium oxysporum protease; experiment: Proteolytic enzyme assay: tryptic activity released from pro-trypsin-like protease, L-BAPNA, 405 nm; type: biochemical
Procedure: as §1, §2, §3

FTC-labeled casein [16] = settings: scale: fold

## synthetic pentapeptide pyroGlu-Glu-Ile-Pro-Asn-COOH
[1]
  Ki: > 5 mM

## dispase (enzyme)
Succinylated casein [2]
  maximum absorbance, succinylated casein hydrolysis: 0.47 absorbance

## O=C(O)CN(CCN(CC(=O)O)CC(=O)O)CC(=O)O [EDTA]
[3]; inhibitor 1 mM
  metalloprotease activity upon addition of the inhibitor: Analogous results

## p45 metalloprotease from Fusarium oxysporum (enzyme)
[4]
  Specific Activity (released trypsin activity, L-BAPNA) (g trypsin/min*mg): 1.2
FTC-labeled casein [5]
  Specific Activity (fluorescence released from FTC-casein): 170 FU/min·mg
Succinylated casein [6]
  maximum absorbance, succinylated casein hydrolysis: 0.3 O.D

## [Zn+2] [Zn^2+]
[3]; addition of 1 mM Zn2+
  reactivation of the 1,10-phenanthroline-inhibited Fusarium metalloprotease: full reactivation

## neutral metalloprotease from Bacillus stearothermophilus (enzyme)
[4]
  Specific Activity (released trypsin activity, L-BAPNA) (g trypsin/min*mg): 0.018
FTC-labeled casein [5]
  Specific Activity (fluorescence released from FTC-casein): 220 FU/min·mg
Succinylated casein [6]
  maximum absorbance, succinylated casein hydrolysis: 0.47 O.D.

B1: Thermolysin from Bacillus thermoproteolyticus (enzyme)
chain: ITGTSTVGVGRGVLGDQKNINTTYSTYYYLQDNTRGNGIFTYDAKYRTTLPGSLWADADNQFFASYDAPAVDAHYYAGVTYDYYKNVHNRLSYDGNNAAIRSSVHYSQGYNNAFWNGSQMVYGDGDGQTFIPLSGGIDVVAHELTHAVTDYTAGLIYQNESGAINEAISDIFGTLVEFYANKNPDWEIGEDVYTPGISGDSLRSMSDPAKYGDPDHYSKRYTGTQDNGGVHINSGIINKAAYLISQGGTHYGVSVVGIGRDKLGKIFYRALTQYLTPTSNFSQLRAAAVQSATDLYGSTSQEVASVKQAFDAVGVK
Succinylated casein [2]
  maximum absorbance, succinylated casein hydrolysis: 0.47 absorbance

B2: B.s. Thermolysin: thermolysin / neutral metalloprotease from Bacillus stearothermophilus (B.s.) (protein, UniProt P43133 236-551, looked up)
Thermolysin: B1 chain
[7]
  Specific Activity, substrate FAGLA: 227 -AU/sec*mg
Succinylated casein [8]
  Specific Activity, substrate Succinylated Casein (maximal level): 0.47 O.D.
  maximum absorbance, casein hydrolysis: ~0.47 O.D. units
FTC-labeled casein [9]
  Specific Activity, substrate FTC-Labelled Casein: 220 FU/min*mg
[10]
  Specific Activity, substrate merc-peptide: 2.9 AU/min*mg
[11]
  Specific Activity, substrate Ala-Ala-Ala-pNA: < 2 pmol pNA/min*mg
[11]; substrate 4.4 mM in 0.1M Tris, pH 8
  hydrolysis of succinyl-Ala-Ala-Ala-p-nitroanilide: neither, the p45 metalloprotease nor the B.s. thermolysin would hydrolyze
[12]
  Specific Activity, substrate pro-trypsin: .018 g trypsin/min*mg

B3: thermolysin: Thermolysin from Bacillus thermoproteolyticus (B.t.), purchased from Boehringer Mannheim (protein)
chain: B1 chain
Succinylated casein [8]
  maximum absorbance, casein hydrolysis: ~0.47 O.D. units
FTC-labeled casein [13]
  optimum temperature for hydrolysis of FTC-casein: 80 °C

B4: trypsin-like Fusarium oxysporum protease (enzyme)
chain: IVGGTSASAGDFPFIVSISRNGGPWCGGSLLNANTVLTAAHCVSGYAQSGFQIRAGSLSRTSGGITSSLSSVRVHPSYSGNNNDLAILKLSTSIPSGGNIGYARLAASGSDPVAGSSATVAGWGATSEGGSSTPVNLLKVTVPIVSRATCRAQYGTSAITNQMFCAGVSSGGKDSCQGDSGGPIVDSSNTLIGAVSWGNGCARPNYSGVYASVGALRSFIDTYA
FTC-labeled casein [14]
  pH at which the protease functions optimally: ~9.5
[15]; with 1,10-phenanthroline (1 mM), without Zn2+
  Tryptic Activity: 33.8 Δ Abs/min × 10^-4
[15]; with inhibitor (1,10-phenanthroline) addition
  Tryptic Activity: 33.8×10^-4 ΔAbs/min
[15]; without 1,10-phenanthroline, without Zn2+
  Tryptic Activity: 34.0 Δ Abs/min × 10^-4
[15]; without inhibitor addition
  Tryptic Activity: 34.0×10^-4 ΔAbs/min
FTC-labeled casein [16]
  hydrolysis of FTC-casein at pH 9: 16
